We go through six molecules from US20140120095A1 (Boehringer Ingelheim, published 2014).

Test [1] addresses T1, mouse DLL4 expressed on CHO cells (mouse, UniProt Q9JI71 27-686).
T1 construct: whole, on cells; also called mDLL4; CHO-mDLL4
The test is described as follows: competition FMAT, labelled hNotch1-Fc on CHO-mDLL4 cells.

For test [2], the target named is T2, recombinant human DLL4 (C-terminally His-tagged extracellular domain, R&D Systems) (human, UniProt Q9NR61 25-522, biotinylated in the competition ELISA).
T2 construct: also called rhDLL4; hDLL4
The test is described as follows: SPR (Biacore), recombinant human DLL4. As to the method:
(§1) Kinetic analysis to determine the affinity of the DII4-VHH interaction is performed by Surface Plasmon Resonance (SPR) on a Biacore T100 instrument. […] Purified VHHs or Fab fragment are injected for 2 minutes at different concentrations (between 10 and 300 nM) and allowed to dissociate for 20 min at a flow rate of 45 μl/min. Between sample injections, the surfaces are regenerated with 10 mM glycine pH1.5 and 100 mM HCl. HBS-N (Hepes buffer pH7.4) is used as running buffer. If possible, data are evaluated by fitting a 1:1 interaction model (Langmuir binding) onto the binding curves. The affinity constant KD is calculated from resulting association and dissociation rate constants (kₐ) and […].
A general note: Surface plasmon resonance follows binding to a sensor surface in real time, without labels.

For test [3], the target named is T3, human DLL4 expressed on cells (CHO-hDLL4; HEK293-hDLL4) (human, UniProt Q9NR61 27-685). The test is described as follows: cell-based or functional assay.
Test [4] addresses T2, recombinant human DLL4 (C-terminally …). In words: cell-based or functional assay.
In test [5] the target is T3, human DLL4 expressed on cells …. The test is described as follows: competition FMAT, labelled hNotch1-Fc on CHO-hDLL4 cells.
The target of test [6] is T4, recombinant human DLL4 (human, UniProt Q9NR61 25-522).
T4 construct: also called rhDLL4; hDLL4
The test is described as follows: hDLL4 ELISA screen, periplasmic extract.

Test [7] deals with T4, recombinant human DLL4. The test is described as follows: Biacore off-rate, periplasmic extract.
For test [8], the target named is T4, recombinant human DLL4. In words: AlphaScreen biot-hDLL4/hNotch1-Fc, periplasmic extract. Background: Bead proximity is the source of the signal in Alpha formats.
In test [9] the target is T3, human DLL4 expressed on cells …. In words: competition FMAT, labelled hNotch1-Fc on CHO-hDLL4 cells. This is another data set of the same source.
For test [10], the target named is T1, mouse DLL4 expressed on CHO cells. In words: competition FMAT, labelled hNotch1-Fc on CHO-mDLL4 cells. The source holds these as a separate data set.
The target in test [11] is T5, cynomolgus DLL4 expressed on CHO cells (cynomolgus, UniProt Q9NR61 27-685 (human entry)).
T5 construct: also called cDLL4; CHO-cDLL4
T5 chain: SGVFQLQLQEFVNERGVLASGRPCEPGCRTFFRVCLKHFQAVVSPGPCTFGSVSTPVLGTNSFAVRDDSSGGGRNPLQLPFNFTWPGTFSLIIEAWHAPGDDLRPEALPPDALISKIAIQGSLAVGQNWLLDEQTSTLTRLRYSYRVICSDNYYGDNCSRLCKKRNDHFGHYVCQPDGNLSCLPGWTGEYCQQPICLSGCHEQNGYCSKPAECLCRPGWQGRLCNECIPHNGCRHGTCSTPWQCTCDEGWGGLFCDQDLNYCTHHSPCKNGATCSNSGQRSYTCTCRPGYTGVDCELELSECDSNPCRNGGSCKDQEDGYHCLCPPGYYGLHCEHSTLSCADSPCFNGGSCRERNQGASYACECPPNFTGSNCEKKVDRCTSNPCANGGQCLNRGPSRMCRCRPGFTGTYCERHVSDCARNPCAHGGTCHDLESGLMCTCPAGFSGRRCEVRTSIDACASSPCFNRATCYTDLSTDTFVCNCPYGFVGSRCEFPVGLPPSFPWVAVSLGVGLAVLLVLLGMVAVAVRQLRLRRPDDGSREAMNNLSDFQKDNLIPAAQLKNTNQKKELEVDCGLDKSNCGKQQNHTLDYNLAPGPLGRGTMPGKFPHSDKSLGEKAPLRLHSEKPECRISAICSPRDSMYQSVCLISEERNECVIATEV
The test is described as follows: FACS; summary table, column taken as cDLL4. In general terms: In flow cytometry, cells or beads pass a laser one at a time.

Test [12] deals with T3, human DLL4 expressed on cells …. The test is described as follows: cell-based or functional assay. The source holds these as a separate data set.
Test [13] has the same target. The test is described as follows: competition FMAT CHO-hDLL4; summary table.
Test [14] shares this target. The test is described as follows: FACS; summary table, column taken as hDLL4.
Test [15] deals with T2, recombinant human DLL4 (C-terminally …). The test is described as follows: competition ELISA hDLL4/hNotch1-Fc; summary table.
Test [16] concerns the target T6, recombinant mouse DLL4 (C-terminally His-tagged extracellular domain, R&D Systems) (mouse, UniProt Q9JI71 27-532).
T6 construct: extracellular domain; also called rmDLL4; mDLL4
The test is described as follows: SPR (Biacore); summary table.

For test [17], the target named is T2, recombinant human DLL4 (C-terminally …). The test is described as follows: SPR (Biacore); summary table.
Test [18] has as its target T5, cynomolgus DLL4 expressed on CHO cells. In words: FACS on CHO-cDLL4 cells.
Test [19] has as its target T2, recombinant human DLL4 (C-terminally …). In words: competition ELISA, biotinylated hDLL4 to coated hNotch1-Fc.
Test [20] has as its target T1, mouse DLL4 expressed on CHO cells. In words: competition FMAT CHO-mDLL4; summary table.
For test [21], the target named is T6, recombinant mouse DLL4 (C-terminally …). The test is described as follows: binding ELISA on coated recombinant mouse DLL4 (Example 5.8, Example 7), OD 450 nm.
Test [22] deals with T2, recombinant human DLL4 (C-terminally …). The test is described as follows: SPR (Biacore), rhDLL4. On the procedure: as §1
Test [23] deals with T6, recombinant mouse DLL4 (C-terminally …). In words: SPR (Biacore), rmDLL4.
For a further test, the target named is T7, human DLL1 (Alexis) (human, UniProt O00548 18-545, limits assumed).
T7 construct: also called hDLL1
T7 sequence (looked up): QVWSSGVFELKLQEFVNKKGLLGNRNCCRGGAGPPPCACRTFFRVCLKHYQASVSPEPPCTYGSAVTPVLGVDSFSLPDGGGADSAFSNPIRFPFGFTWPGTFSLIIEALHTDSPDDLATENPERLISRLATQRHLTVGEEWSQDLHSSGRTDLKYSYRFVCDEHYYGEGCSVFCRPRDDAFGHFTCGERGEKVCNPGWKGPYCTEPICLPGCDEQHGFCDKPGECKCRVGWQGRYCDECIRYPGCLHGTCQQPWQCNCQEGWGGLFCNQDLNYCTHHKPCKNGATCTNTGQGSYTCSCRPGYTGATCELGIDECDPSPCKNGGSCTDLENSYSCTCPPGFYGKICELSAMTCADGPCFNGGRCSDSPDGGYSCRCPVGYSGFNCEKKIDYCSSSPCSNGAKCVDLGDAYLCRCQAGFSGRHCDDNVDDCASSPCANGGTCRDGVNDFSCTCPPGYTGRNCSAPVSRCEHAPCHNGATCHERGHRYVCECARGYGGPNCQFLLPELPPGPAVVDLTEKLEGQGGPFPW
In words: binding ELISA on coated human DLL1 (Example 5.8, Example 7), OD 450 nm.

Test [24] concerns the target T2, recombinant human DLL4 (C-terminally …). The test is described as follows: binding ELISA on coated recombinant human DLL4 (Example 5.8, Example 7), OD 450 nm.
Test [25] has as its target T3, human DLL4 expressed on cells …. The test is described as follows: FACS on CHO-hDLL4 cells.
For a further test, the target named is T8, human Jagged-1 (Alexis) (human, UniProt P78504 34-1067, limits assumed).
T8 construct: also called hJag-1; hJAG1
The test is described as follows: binding ELISA on coated human Jagged-1 (Example 5.8, Example 7), OD 405 nm.

A word on the IC50: it is the midpoint of a concentration-inhibition curve. By Kd is commonly meant a measure of binding affinity in units of concentration. For orientation: koff means a measure of how fast the partners let go of each other. In general, kon refers to the rate constant with which the complex forms. As a reminder, the EC50 is the concentration at which the effect is half-maximal. Lower therefore signals greater potency. Usually EC50 (read off the curve) stands for the concentration needed to bring the measured effect to its halfway point.

T6 sequence (Q9JI71 27-532): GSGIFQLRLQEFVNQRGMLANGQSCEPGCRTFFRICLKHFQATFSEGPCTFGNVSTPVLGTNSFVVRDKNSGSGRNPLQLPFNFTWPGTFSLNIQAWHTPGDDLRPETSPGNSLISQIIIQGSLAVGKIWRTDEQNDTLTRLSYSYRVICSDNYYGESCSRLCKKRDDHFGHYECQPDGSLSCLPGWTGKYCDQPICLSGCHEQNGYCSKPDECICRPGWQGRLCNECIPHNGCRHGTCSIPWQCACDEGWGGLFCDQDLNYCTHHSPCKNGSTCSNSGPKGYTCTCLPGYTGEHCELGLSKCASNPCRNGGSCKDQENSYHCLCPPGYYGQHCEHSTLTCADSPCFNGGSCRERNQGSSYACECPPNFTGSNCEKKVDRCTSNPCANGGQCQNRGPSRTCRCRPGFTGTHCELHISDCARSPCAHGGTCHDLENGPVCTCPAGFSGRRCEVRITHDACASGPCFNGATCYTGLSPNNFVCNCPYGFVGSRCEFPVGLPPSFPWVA
T1 sequence (Q9JI71 27-686): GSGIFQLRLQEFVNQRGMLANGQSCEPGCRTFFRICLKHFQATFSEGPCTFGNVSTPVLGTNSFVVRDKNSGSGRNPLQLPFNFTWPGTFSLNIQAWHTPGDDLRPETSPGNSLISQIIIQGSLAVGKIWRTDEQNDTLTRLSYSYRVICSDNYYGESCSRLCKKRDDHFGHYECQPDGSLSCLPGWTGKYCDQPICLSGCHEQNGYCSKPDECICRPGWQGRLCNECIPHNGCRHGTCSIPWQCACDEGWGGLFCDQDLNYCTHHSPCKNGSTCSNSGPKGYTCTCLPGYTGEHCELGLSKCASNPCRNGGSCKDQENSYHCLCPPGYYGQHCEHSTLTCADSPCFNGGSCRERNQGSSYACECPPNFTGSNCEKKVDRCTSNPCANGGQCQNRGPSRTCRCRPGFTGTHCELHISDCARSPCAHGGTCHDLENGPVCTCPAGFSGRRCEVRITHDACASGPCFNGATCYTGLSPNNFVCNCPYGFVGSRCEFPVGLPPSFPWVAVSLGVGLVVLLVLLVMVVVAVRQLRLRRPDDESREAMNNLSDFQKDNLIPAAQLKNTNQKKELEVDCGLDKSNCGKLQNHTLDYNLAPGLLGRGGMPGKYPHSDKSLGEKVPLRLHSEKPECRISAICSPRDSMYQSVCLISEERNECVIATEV

B1: DLLBII018 (VHH, not shown: small tags and cut ends)
VHH: EVQLVESGGGLVQPGGSLRLSCAASGRTFSSYAMAWYRQAPGKEREYVAAIRWSGGTAYYADSVKGRFTISRDNAKNTVYLQMNSLRPEDTAVYYCANRAPDTRLAPYEYDHWGQGTLVTVSS
As for B1, the concentration for half-maximal inhibition (IC50) in test [1] came out at 0.0154 µM. For the same molecule, in test [2], the Kd turned out to be 0.0002 µM, the koff amounted to 9.4e-05 s⁻¹ and the on-rate (kon) turned out to be 450000 M⁻¹ s⁻¹. Besides, in test [3], the “IC50, DLL4-mediated reporter assay (hDLL4)” value worked out at 0.136 µM. For the same molecule, in [4], the “IC50, DLL4-mediated HUVEC proliferation assay” value amounted to 0.0053 µM and the “Inhibition (%), DLL4-mediated HUVEC proliferation assay” value stood at 100%. In [5], this molecule displayed a half-inhibitory concentration (IC50) of 0.011 µM.

B2: DLLBII33C05 (VHH)
VHH: EVQLVESGGGLVQAGGSLRLSCAASGFTLDNYVIGWFRQAPGKEREEVSCISSSGGSTDYLDSVKGRFTISRDNAKNTVYLQMNSLKPEDTAVYYCAADSLPCYYDKMVYDYWGQGTQVTVSS
On to B2, for which the “% inh” value with recombinant human DLL4 [6] worked out at 86%; with recombinant human DLL4 [8], 75%. Also, the koff with recombinant human DLL4 [7] was found to be 0.00092 s⁻¹.

B3: DLLBII28B06 (VHH)
VHH: EVQLVESGGGLVQAGGSLRLSCAASGSTFSTYAMGWYRQDPGNQRELVAAISSDGSTHYADSVKGRFTISRDNAKNTVYLQMNSLKPEDTAVYYCYAPVKVAGLEYDYWGQGTQVTVSS
For B3, the “% inh” value worked out at 23% with recombinant human DLL4 [6] and 54% with recombinant human DLL4 [8]. In addition, the koff with recombinant human DLL4 [7] stood at 0.0075 s⁻¹.

B4: DLLBII115A05 (VHH, not shown: small tags and cut ends)
VHH: EVQLVESGGGLVQPGGSLRLSCAASGFTFGSYDMSWVRRSPGKGPEWVSSINSGGGSTYYADFVKGRFTISRDNAKNTLYLQMNSLKPEDTAVYYCAADRYIRARQGDYWGAYEYDYWGQGTQVTVSS
notes: parent VHH; also called 115A05 (wt); 115A5
Regarding B4, the IC50 in [9] was 0.107 µM; in test [10] it was 0.349 µM; in test [13], 0.107 µM; in test [15], 0.0075 µM; in test [19] it was 0.0075 µM; in [20] it was 0.349 µM. The 50% effective concentration (EC50) was found to be 0.0138 µM in test [11], 0.0113 µM in [14], 0.0138 µM in test [18] and 0.0113 µM in test [25]. In [12], the “IC50, DLL4-mediated reporter assay” value came out at 1.34 µM. In addition, the Kd came out at 0.053 µM in test [16], 0.016 µM in [17], 0.016 µM in test [22] and 0.053 µM in test [23]. Besides, the figures for the “EC50 (read off the curve)” value in test [21] and in test [24] were approximately 0.01 µM and approximately 0.002 µM, respectively. Also, the off-rate constant (koff) is 0.004 s⁻¹ in test [22] and 0.0091 s⁻¹ in test [23]. Moreover, the association rate constant (kon) in test [22] is 250000 M⁻¹ s⁻¹; in test [23], 170000 M⁻¹ s⁻¹. For the same molecule, the binding result in the test with human DLL1 (Alexis) and with human Jagged-1 (Alexis) was “no binding (tested: log[M] -6.1 (about 8e-7 M))” in each case.

B5: DLLBII036 (VHH, not shown: small tags and cut ends)
VHH: EVQLVESGGGLVQPGGSLRLSCAASGFTFGSYDMSWVRRAPGKGPEWVSSISSGGGSTYYADYVKGRFTISRDNAKNTLYLQMNSLRPEDTAVYYCAADRYIWARQGEYWGAYEYDYWGQGTLVTVSS
The molecule B5 registered a half-maximal inhibitory concentration (IC50) in test [1] of 0.0447 µM. Further, in test [2], the Kd was found to be 0.0008 µM, the koff turned out to be 0.00055 s⁻¹ and the kon was determined as 660000 M⁻¹ s⁻¹. Further, in [3], the “IC50, DLL4-mediated reporter assay (hDLL4)” value was found to be 0.078 µM. Further, in test [4], the “IC50, DLL4-mediated HUVEC proliferation assay” value amounted to 0.0076 µM and the “Inhibition (%), DLL4-mediated HUVEC proliferation assay” value turned out to be 100%. In test [5], the concentration for half-maximal inhibition (IC50) amounted to 0.0097 µM.

B6: DLLBII19F12 (VHH)
VHH: EVQLVESGGGLVQAGGSLRLSCTASGSTFTSYAMGWYRQAPGKQRELVAAISSDDSTYYADCVKGRFTISRDNAKNTVYLQMNSLKPEDTAVYYCNAPHSDYDEEAPSDFGSWGQGTQVTVSS
As to B6, the “% inh” value with recombinant human DLL4 [6] and with recombinant human DLL4 [8] was 98% each time. In addition, the koff in the test with recombinant human DLL4 [7] was 0.00049 s⁻¹.
